Reference: IntAct's records for PubMed 23728178

B1: Complement factor H-related protein 1 (Homo sapiens), Q03591 (parent)
chain: MWLLVSVILISRISSVGGEATFCDFPKINHGILYDEEKYKPFSQVPTGEVFYYSCEYNFVSPSKSFWTRITCTEEGWSPTPKCLRLCFFPFVENGHSESSGQTHLEGDTVQIICNTGYRLQNNENNISCVERGWSTPPKCRSTDTSCVNPPTVQNAHILSRQMSKYPSGERVRYECRSPYEMFGDEEVMCLNGNWTEPPQCKDSTGKCGPPPPIDNGDITSFPLSVYAPASSVEYQCQNLYQLEGNKRITCRNGQWSEPPKCLHPCVISREIMENYNIALRWTAKQKLYLRTGESAEFVCKRGYRLSSRSHTLRTTCWDGKLEYPTCAKR
B2: Complement factor H-related protein 1 (Homo sapiens), Q03591 (parent)
chain: B1 chain
partner: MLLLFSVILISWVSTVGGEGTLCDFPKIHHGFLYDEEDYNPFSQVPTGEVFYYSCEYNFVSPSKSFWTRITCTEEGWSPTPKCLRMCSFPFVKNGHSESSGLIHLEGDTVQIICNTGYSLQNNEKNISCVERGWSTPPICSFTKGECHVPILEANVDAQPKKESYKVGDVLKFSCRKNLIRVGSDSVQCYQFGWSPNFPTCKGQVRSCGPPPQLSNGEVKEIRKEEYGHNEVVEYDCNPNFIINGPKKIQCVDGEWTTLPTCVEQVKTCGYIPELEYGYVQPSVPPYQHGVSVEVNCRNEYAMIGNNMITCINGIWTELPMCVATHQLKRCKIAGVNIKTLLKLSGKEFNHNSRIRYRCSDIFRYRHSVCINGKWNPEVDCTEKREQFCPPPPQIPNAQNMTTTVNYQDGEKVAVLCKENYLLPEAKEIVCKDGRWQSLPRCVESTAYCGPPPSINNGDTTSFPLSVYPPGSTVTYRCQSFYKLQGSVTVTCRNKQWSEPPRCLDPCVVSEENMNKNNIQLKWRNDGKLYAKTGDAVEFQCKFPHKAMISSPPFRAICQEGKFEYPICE

Variants of: B1
Conditions: with fhr2_human CFHR2, P36980

Row | Variant | effect of a mutation on the interaction
1 | MWLLVSVILISRISSVGGEATFCDFPKINHGILYDEEKYKPFSQVPTGEVFYYSCEYNFVSPSKSFWTRITCTEEGWSPTPKCLRLCFFPFVENGHSESSGQTHLEGDTVQIICNTGYRLQNNENNISCVERGWSTPPKCRSTDTSCVNPPTVQNAYIVSRQMSKYPSGERVRYQCRSPYEMFGDEEVMCLNGNWTEPPQCKDSTGKCGPPPPIDNGDITSFPLSVYAPASSVEYQCQNLYQLEGNKRITCRNGQWSEPPKCLHPCVISREIMENYNIALRWTAKQKLYLRTGESAEFVCKRGYRLSSRSHTLRTTCWDGKLEYPTCAKR [H157Y;L159V;E175Q] | with no effect

Variants of: B2
Conditions: with fhr5_human CFHR5, Q9BXR6

Row | Variant | effect of a mutation on the interaction
2 | MWLLVSVILISRISSVGGEATFCDFPKINHGILYDEEKYKPFSQVPTGEVFYYSCEYNFVSPSKSFWTRITCTEEGWSPTPKCLRLCFFPFVENGHSESSGQTHLEGDTVQIICNTGYRLQNNENNISCVERGWSTPPKCRSTDTSCVNPPTVQNAYIVSRQMSKYPSGERVRYQCRSPYEMFGDEEVMCLNGNWTEPPQCKDSTGKCGPPPPIDNGDITSFPLSVYAPASSVEYQCQNLYQLEGNKRITCRNGQWSEPPKCLHPCVISREIMENYNIALRWTAKQKLYLRTGESAEFVCKRGYRLSSRSHTLRTTCWDGKLEYPTCAKR [H157Y;L159V;E175Q] | with no effect
